How the values were obtained:
[1] = target: T1, recombinant human ENTPD2 (residues 29-462) (Homo sapiens, UniProt Q9Y5L3); experiment: Biochemical human ENTPD2 functional assay (Transcreener ADP2 TR-FRET); settings: FIG. 15
T1 construct: residues 29-462 of human or cyno ENTPD2 were cloned into expression vector; GP67 signal peptide (N); made in house; host or cells: High Five (Trichoplusia ni) insect cells, baculovirus
T1 sequence (Q9Y5L3 29-462): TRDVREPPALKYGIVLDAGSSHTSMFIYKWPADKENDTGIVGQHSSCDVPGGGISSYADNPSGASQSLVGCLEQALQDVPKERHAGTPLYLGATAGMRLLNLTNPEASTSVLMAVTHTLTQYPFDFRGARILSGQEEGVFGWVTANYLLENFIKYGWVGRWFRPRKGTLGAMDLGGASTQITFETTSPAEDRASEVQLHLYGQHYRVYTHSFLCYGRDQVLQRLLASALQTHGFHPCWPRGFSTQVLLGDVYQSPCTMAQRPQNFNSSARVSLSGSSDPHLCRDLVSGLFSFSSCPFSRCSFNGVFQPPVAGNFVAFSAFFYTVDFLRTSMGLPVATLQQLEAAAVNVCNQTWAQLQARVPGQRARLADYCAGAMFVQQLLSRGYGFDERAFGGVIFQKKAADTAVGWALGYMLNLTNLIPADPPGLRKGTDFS
Text: Biochemical and cell-based functional assays were developed in-house to understand functional impact of anti-ENTPD2 Abs against purified extracellular domain of ENTPD2 (residues 29-462), as well as against the fully intact protein in the context of the native cell-based conformation. ENTPD2 hydrolyzes ATP to ADP, which can subsequently be detected using the HTRF Transcreener ADP2 TR-FRET Red Assay (BellBrook Labs, Madison, Wis.) where ENTPD2-produced ADP would compete with the ADP Tracer for binding to the anti-ADP-Tb antibody. The resulting signal is inversely proportional to the concentration of ADP in the sample.
To evaluate activity of anti-ENTPD2 Abs in the ENTPD2 biochemical assay, anti-ENTPD2 Abs and recombinant ENTPD2 (residues 29-462) were diluted in reaction buffer (50 mM HEPES, pH 7.1, 10 mM MgCl2, 0.01% BSA) to the desired concentration. 4 μL per well of the ENTPD2 solution and 2 μL per well of the Anti-ENTPD2 Ab solution were transferred into a ProxiPlate (PerkinElmer, Waltham, Mass.) and incubated for 30 min at room temperature. Reaction was then initiated via addition of 2 μl of ATP (final assay concentration of 1 μM), and the sample was incubated for 25 min at room temperature. […]
HTRF signal (Emission at 620 nm and 665 nm) was assessed in both assays using the Envision plate reader in HTRF mode (Perkin Elmer, Waltham, Mass.). HTRF ratio was determined using the following formula: HTRF ratio=R=Emission at 665 nm/Emission at 620 nm×10,000. Subsequently % Residual Activity and % Inhibition were determined as follows:
Where R0% is the HTRF ratio of the negative control (0% enzyme activity), and R100% is the HTRF ratio of the positive control (100% enzyme activity). Data were analyzed in Microsoft Excel and graphed using GraphPad's Prism 7.0 software and IC50 values were obtained using non-linear regression, log (agonist) vs. response-variable slope (four parameters) analysis.

ENTPD2 = target: T2, ENTPD2 (Homo sapiens, UniProt Q9Y5L3); experiment: Hybridoma mAb screen: cell-based assay for inhibition of ATP hydrolysis by ENTPD2; settings: hybridoma-derived mAbs
T2 sequence (Q9Y5L3 1-495): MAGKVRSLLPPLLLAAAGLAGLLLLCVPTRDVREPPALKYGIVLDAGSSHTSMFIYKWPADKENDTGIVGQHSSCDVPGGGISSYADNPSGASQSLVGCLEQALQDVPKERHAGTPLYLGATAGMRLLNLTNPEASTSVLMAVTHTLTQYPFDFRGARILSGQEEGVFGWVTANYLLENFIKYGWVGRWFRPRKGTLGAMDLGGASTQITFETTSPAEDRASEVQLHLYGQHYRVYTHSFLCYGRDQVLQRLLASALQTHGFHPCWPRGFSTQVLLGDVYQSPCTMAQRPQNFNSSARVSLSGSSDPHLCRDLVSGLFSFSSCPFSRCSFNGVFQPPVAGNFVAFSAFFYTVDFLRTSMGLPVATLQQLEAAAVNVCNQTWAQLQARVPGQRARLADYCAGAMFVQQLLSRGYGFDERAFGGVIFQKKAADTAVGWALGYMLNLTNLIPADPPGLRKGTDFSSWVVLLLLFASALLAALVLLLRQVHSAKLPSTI
Text: Hybridoma-derived mAbs were screened in a cell-based assay for inhibition of ATP hydrolysis by ENTPD2.

B1: mAb17: hybridoma-derived lead inhibitory anti-human ENTPD2 mAb; VH/VL DNA SEQ ID NO: 234/238 (antibody, V domains shown)
VH: EVQLQQFGAELVKPGASVKISCKASGYTFTDYNMDWVKQSHGKSLEWIGDINPKYDISTYNQQFKGKATLTVDKSSSTAYMELRSLTSEDTAVYYCARRGFFLYYGINYYYFDVWGAGTTVTVSS
VL: QIVLTQSPAIMSASLGEEITLTCSASSSVSYIHWYQQKSGTSPTLLIYSTSNLASGVPSRFSGSGSGTFYSLTISSVEAEDAADYYCHQWSSYPWTFGGGTKLEIK
[1]
  inhibition of the catalytic activity of recombinant human ENTPD2: potently inhibit
ENTPD2
  inhibition of ATP hydrolysis by ENTPD2: lead inhibitory mAbs

Source: patent publication US20220348651A1, “ENTPD2 ANTIBODIES, COMBINATION THERAPIES, AND METHODS OF USING THE ANTIBODIES AND COMBINATION THERAPIES” (Novartis AG, priority 2019, published 2022)
